Test results published in patent publication US5705609A, “Decorin fragments inhibiting cell regulatory factors” (La Jolla Cancer Research Foundation, priority 1995, dated 1998).
Entries after “also recorded” stand apart in the source; their conditions may differ.

How the values were obtained:
TGF-β [1] = target: T1, TGF-β (Homo sapiens, UniProt P01137); assay: Binding of 125I-TGF-β to L-M(tk-) cells; settings: various concentrations of peptide (FIG. 12)
Method: About 2.5×10^4 HepG2 cells or L-M(tk-) cells were incubated with 250 pM[^125 I]TGF-β in the presence of recombinant human decorin (DC-12), PT-71 (MBP), decorin fragments (PT-72, -73, -84, -85, -86 and -87) or anti-TGF-β antibodies for 2 hours at room temperature. Cells were washed with washing buffer (128 mM NaCl, 5 mM KCl, 5 mM […], 1.2 mM CaCl2, 50 mM HEPES, pH 7.5) four times before determination of bound CPM.
The activity of the peptides was evaluated using the L-M(tk-) TGFβ1 binding inhibition assay described in Example VII, except various concentrations of peptide were incubated with the cells and TGFβ1 instead of decorin and recombinant decorin fragments. The negative control was a synthetic peptide corresponding to the first 15 amino acids of decorin, which has the sequence […](SEQ ID NO. 21).

TGFβ-1 [2] = target: T2, TGFβ-1 (Homo sapiens, UniProt P01137); assay: Microtiter binding assay: [125I]-TGFβ-1 binding to decorin-coated wells and competition; design: contains a major band at 25 kd; This band represents the native TGFβ-1 dimer; purchased Calbiochem, La Jolla, Calif; settings: for inhibition of [125I]-TGFβ-1 binding to decorin-coated wells: intact proteoglycans, 37° C. 4 hours (FIG. 3A); for inhibition of [125I]-TGFβ-1 binding to decorin-coated wells by core proteins: core proteins / chondroitinase ABC-treated, 4° C. overnight (FIG. 3B); for binding of [125I]-TGFβ-1 to microtiter wells coated with the protein: protein coated on wells
Method: The binding of TGFβ-1 to decorin was also examined in a microtiter binding assay. To perform the assay, the wells of a 96-well microtiter plate were coated overnight with 2μg/ml of recombinant decorin in 0.1M sodium carbonate buffer, pH 9.5. The wells were washed with PBS containing 0.05% Tween (PBS/Tween) and samples containing 5×10^4 cpm of [^125 I]-TGFβ-1 and various concentrations of competitors in PBS/Tween were added to each well. The plates were then incubated at 37° C. for 4 hours (at 4° C. overnight in experiments with chondroitinase ABC-digested proteoglycans), washed with PBS/Tween and the bound radioactivity was solubilized with 1% SDS in 0.2M NaOH. Total binding without competitors was about 4% under the conditions used. Nonspecific binding, determined by adding 100-fold molar excess of unlabeled TGFβ-1 over the labeled TGFβ-1 to the incubation mixture, was about 13% of total binding. This assay was also used to study the ability of other decorin preparations and related proteins to compete with the interaction.
Decorin isolated from bovine skin and biglycan isolated from bovine articular cartilage (PGI and PGII, obtained from Dr. Lawrence Rosenberg, Monteflore Medical Center, N.Y.; and described in Rosenberg et al., J. Biol. Chem. 250:6304-6313, (1985), incorporated by reference herein), chicken cartilage proteoglycan (provided by Dr. Paul Goetinck, La Jolla Cancer Research Foundation, La Jolla, Calif., and described in Goetinck, P. F., in THE GLYCOCONJUGATES, Vol. III, Horwitz, M. I., Editor, pp. 197-217, Academic Press, NY). For the preparation of core proteins, proteoglycans were digested with chondroitinase ABC (Seikagaku, Tokyo, Japan) by incubating 500 μg of proteoglycan with 0.8 units of chondroitinase ABC in 250 μl of 0.1M Tris/Cl, pH 8.0, 30 mM sodium acetate, 2 mM PMSF, 10 mM N-ethylmalelmide, 10 mM EDTA, and 0.36 mM pepstatin for 1 hour at 37° C. Recombinant decorin and decorin isolated from bovine skin (PGII) inhibited the binding of [^125 I]-TGFβ-1, as expected (FIG. 3A). […] This notion was further supported by competition experiments with the mutated decorin core protein (not shown) and chondroitinase ABC-digested decorin and biglycan (FIG.3B). Each of these proteins was inhibitory, whereas cartilage proteoglycan core protein was not.
Target sequence in this assay (P01137 279-390 limits assumed, species assumed): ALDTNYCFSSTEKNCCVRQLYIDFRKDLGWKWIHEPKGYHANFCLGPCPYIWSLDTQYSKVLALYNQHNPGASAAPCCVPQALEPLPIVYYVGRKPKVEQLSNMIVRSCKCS

TGFβ-1 [3] = target: T2, TGFβ-1; assay: affinity chromatography of 125I-TGFβ1 on control gelatin-Sepharose
TGF-β [4] = target: T1, TGF-β; assay: Binding of 125I-TGF-β to immobilized decorin with competitors; settings: 400 pM 125I-TGF-β pre-incubated with competitor; overnight 0° C.
Method: Immulon wells were coated with 0.5 μg/ml recombinant decorin at 50 μl/well. The wells were placed in a 37° C. incubator overnight and thereafter washed 3 times with 200 μl PBS (0.15M NaCl ) per well to remove unbound decorin. TGF-β labeled with ^125 I (400 pM, New England Nuclear, Bolton-Hunter Labeled) was pre-incubated with or without competitors in 200 μl PBS/0.05% Tween-20 for 1 hour and 45 minutes at room temperature. Competitors included recombinant human decorin preparations (DC-13 and DC-18v), decorin fragments, and MBP as a negative control.
Fifty μl/well of the pre-incubated ^125 I-TGF-β mixture or control were added and incubated overnight at 0° C. Following the incubation, 50 μl of the free TGF-β supernatants were transferred to labeled tubes. The plate was washed 3 times with 0.05% Tween-20 in PBS (200 μl/well). The wells were then transferred into tubes for counting in a gamma counter.
Further binding studies were conducted with soluble N-terminal decorin peptide fragments synthesized and tested for their ability to inhibit TGF-β1 binding to immobilized decorin as described above.

T1 sequence (P01137 279-390 limits assumed): as the sequence (P01137 279-390 limits assumed, species assumed) above

Molecule: PFRSQSHLRVVQ [P25 -Q36, 18]
- inhibition of binding of TGFβ1 to L-M(tk-) cells by synthetic peptides (TGF-β [1]): inhibited

Molecule: PFRCQCHLRVVQ [nP25 -Q36, 20]
- inhibition of binding of TGFβ1 to L-M(tk-) cells by synthetic peptides (TGF-β [1]): demonstrated inhibitory activity, albeit to a lesser extent

Molecule: Bovine serum albumin: bovine serum albumin control [reference compound]
- inhibition of [125I]-TGFβ-1 binding to decorin-coated wells (TGFβ-1 [2]): did not shown any inhibition

Molecule: Bovine serum albumin treated with chondroitinase ABC: BSA treated with chondroitinase ABC, control [reference compound]
- inhibition of [125I]-TGFβ-1 binding to decorin-coated wells by core proteins (TGFβ-1 [2]): did not shown any inhibition

Molecule: gelatin
- percent of the radioactivity in the urea-eluted fraction (TGFβ-1 [3]): 2%

B1: DC-13: preparation of recombinant human decorin (protein)
chain: DEASGIGPEVPDDRDFEPSLGPVCPFRCQCHLRVVQCSDLGLDKVPKDLPPDTTLLDLQNNKITEIKDGDFKNLKNLHALILVNNKISKVSPGAFTPLVKLERLYLSKNQLKELPEKMPKTLQELRAHENEITKVRKVTFNGLNQMIVIELGTNPLKSSGIENGAFQGMKKLSYIRIADTNITSIPQGLPPSLTELHLDGNKISRVDAASLKGLNNLAKLGLSFNSISAVDNGSLANTPHLRELHLDNNKLTRVPGGLAEHKYIQVVYLHNNNISVVGSSDFCPPGHNTKKASYSGVSLFSNPVQYWEIQPSTFRCVYVRSAIQLGNYK
modifications: single glycosaminoglycan chain of a chondroitin sulfate/dermatan sulfate type on serine-4
notes: preparation of recombinant human decorin
- inhibition of 125I-TGF-β binding to immobilized decorin (TGF-β [4]): inhibited

B2: DC-18V: preparation of recombinant human decorin (protein)
chain: DEASGIGPEVPDDRDFEPSLGPVCPFRCQCHLRVVQCSDLGLDKVPKDLPPDTTLLDLQNNKITEIKDGDFKNLKNLHALILVNNKISKVSPGAFTPLVKLERLYLSKNQLKELPEKMPKTLQELRAHENEITKVRKVTFNGLNQMIVIELGTNPLKSSGIENGAFQGMKKLSYIRIADTNITSIPQGLPPSLTELHLDGNKISRVDAASLKGLNNLAKLGLSFNSISAVDNGSLANTPHLRELHLDNNKLTRVPGGLAEHKYIQVVYLHNNNISVVGSSDFCPPGHNTKKASYSGVSLFSNPVQYWEIQPSTFRCVYVRSAIQLGNYK
modifications: single glycosaminoglycan chain of a chondroitin sulfate/dermatan sulfate type on serine-4
notes: as for B1
- inhibition of 125I-TGF-β binding to immobilized decorin (TGF-β [4]): inhibited

B3: Biglycan isolated from bovine articular cartilage: biglycan isolated from bovine articular cartilage (protein)
chain: DEEASGAETTSGIPDLDSLPPTYSAMCPFGCHCHLRVVQCSDLGLKAVPKEISPDTTLLDLQNNDISELRKDDFKGLQHLYALVLVNNKISKIHEKAFSPLRKLQKLYISKNHLVEIPPNLPSSLVELRIHDNRIRKVPKGVFSGLRNMNCIEMGGNPLENSGFEPGAFDGLKLNYLRISEAKLTGIPKDLPETLNELHLDHNKIQAIELEDLLRYSKLYRLGLGHNQIRMIENGSLSFLPTLRELHLDNNKLSRVPAGLPDLKLLQVVYLHTNNITKVGVNDFCPVGFGVKRAYYNGISLFNNPVPYWEVQPATFRCVTDRLAIQFGNYKK
modifications: intact proteoglycan (carries glycosaminoglycan)
- inhibition of [125I]-TGFβ-1 binding to decorin-coated wells (TGFβ-1 [2]): as effective an inhibitor as decorin
- binding of [125I]-TGFβ-1 to microtiter wells coated with the protein (TGFβ-1 [2]): bound

B4: decorin isolated from bovine skin (PGII): decorin isolated from bovine skin (protein, UniProt P21793 31-360, looked up)
Decorin: DEASGIGPEEHFPEVPEIEPMGPVCPFRCQCHLRVVQCSDLGLEKVPKDLPPDTALLDLQNNKITEIKDGDFKNLKNLHTLILINNKISKISPGAFAPLVKLERLYLSKNQLKELPEKMPKTLQELRVHENEITKVRKSVFNGLNQMIVVELGTNPLKSSGIENGAFQGMKKLSYIRIADTNITTIPQGLPPSLTELHLDGNKITKVDAASLKGLNNLAKLGLSFNSISAVDNGSLANTPHLRELHLNNNKLVKVPGGLADHKYIQVVYLHNNNISAIGSNDFCPPGYNTKKASYSGVSLFSNPVQYWEIQPSTFRCVYVRAAVQLGNYK
- inhibition of [125I]-TGFβ-1 binding to decorin-coated wells (TGFβ-1 [2]): inhibited

B5: mutated decorin core protein: decorin core protein with serine-4 mutated, lacking glycosaminoglycan (protein)
chain: DEATGIGPEVPDDRDFEPSLGPVCPFRCQCHLRVVQCSDLGLDKVPKDLPPDTTLLDLQNNKITEIKDGDFKNLKNLHALILVNNKISKVSPGAFTPLVKLERLYLSKNQLKELPEKMPKTLQELRAHENEITKVRKVTFNGLNQMIVIELGTNPLKSSGIENGAFQGMKKLSYIRIADTNITSIPQGLPPSLTELHLDGNKISRVDAASLKGLNNLAKLGLSFNSISAVDNGSLANTPHLRELHLDNNKLTRVPGGLAEHKYIQVVYLHNNNISVVGSSDFCPPGHNTKKASYSGVSLFSNPVQYWEIQPSTFRCVYVRSAIQLGNYK
- inhibition of [125I]-TGFβ-1 binding to decorin-coated wells by core proteins (TGFβ-1 [2]): inhibitory

B6: chondroitinase ABC-digested decorin: decorin core protein prepared by chondroitinase ABC digestion (protein)
chain: DEATGIGPEVPDDRDFEPSLGPVCPFRCQCHLRVVQCSDLGLDKVPKDLPPDTTLLDLQNNKITEIKDGDFKNLKNLHALILVNNKISKVSPGAFTPLVKLERLYLSKNQLKELPEKMPKTLQELRAHENEITKVRKVTFNGLNQMIVIELGTNPLKSSGIENGAFQGMKKLSYIRIADTNITSIPQGLPPSLTELHLDGNKISRVDAASLKGLNNLAKLGLSFNSISAVDNGSLANTPHLRELHLDNNKLTRVPGGLAEHKYIQVVYLHNNNISVVGSSDFCPPGHNTKKASYSGVSLFSNPVQYWEIQPSTFRCVYVRSAIQLGNYK
- inhibition of [125I]-TGFβ-1 binding to decorin-coated wells by core proteins (TGFβ-1 [2]): inhibitory; also recorded: somewhat more active than the intact proteoglycans

B7: chondroitinase ABC-digested biglycan: biglycan core protein prepared by chondroitinase ABC digestion (protein)
chain: DEEASGAETTSGIPDLDSLPPTYSAMCPFGCHCHLRVVQCSDLGLKAVPKEISPDTTLLDLQNNDISELRKDDFKGLQHLYALVLVNNKISKIHEKAFSPLRKLQKLYISKNHLVEIPPNLPSSLVELRIHDNRIRKVPKGVFSGLRNMNCIEMGGNPLENSGFEPGAFDGLKLNYLRISEAKLTGIPKDLPETLNELHLDHNKIQAIELEDLLRYSKLYRLGLGHNQIRMIENGSLSFLPTLRELHLDNNKLSRVPAGLPDLKLLQVVYLHTNNITKVGVNDFCPVGFGVKRAYYNGISLFNNPVPYWEVQPATFRCVTDRLAIQFGNYKK
modifications: glycosaminoglycan removed with chondroitinase ABC
notes: biglycan core protein prepared by chondroitinase ABC digestion
- inhibition of [125I]-TGFβ-1 binding to decorin-coated wells by core proteins (TGFβ-1 [2]): inhibitory; also recorded: somewhat more active than the intact proteoglycans
- binding of [125I]-TGFβ-1 to microtiter wells coated with the protein (TGFβ-1 [2]): bound
